From paper PMC8861093 (2022) come the findings set out here.

The experiment deals with WDR5 (Homo sapiens, UniProt P61964). Description: biolayer interferometry. (In general: Biolayer interferometry detects binding as a change in optical thickness at a sensor tip.)

B1: MLL4Win (peptide)
chain: LNPHGAARAEVYLR
Turning to B1, the Kd (in general, the free concentration of one partner at which half of the binding sites on the other are occupied at equilibrium, for simple one-to-one binding) is 460 nM.
